Ho/Con_2aR data for 20 molecules are collected here from patent publication US20150344570A1 (published 2015).

The labels stand for the following.
T1: FcγRIIa R (extracellular domain, His tag at the C terminus) (human, UniProt P12318 34-217)
T1 construct: extracellular domain; Soluble analyte in Biacore; also called FcgRIIa R type; 2aR
T1 sequence (looked up): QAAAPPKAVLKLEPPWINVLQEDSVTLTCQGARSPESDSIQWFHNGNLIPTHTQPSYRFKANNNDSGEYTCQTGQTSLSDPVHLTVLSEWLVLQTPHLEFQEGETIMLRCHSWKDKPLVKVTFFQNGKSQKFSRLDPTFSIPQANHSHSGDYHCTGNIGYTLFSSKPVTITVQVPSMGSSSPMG

B1: GpH7-B3 variant L328_07I/GpL16-k0 (antibody, human IgG1, kappa)
heavy: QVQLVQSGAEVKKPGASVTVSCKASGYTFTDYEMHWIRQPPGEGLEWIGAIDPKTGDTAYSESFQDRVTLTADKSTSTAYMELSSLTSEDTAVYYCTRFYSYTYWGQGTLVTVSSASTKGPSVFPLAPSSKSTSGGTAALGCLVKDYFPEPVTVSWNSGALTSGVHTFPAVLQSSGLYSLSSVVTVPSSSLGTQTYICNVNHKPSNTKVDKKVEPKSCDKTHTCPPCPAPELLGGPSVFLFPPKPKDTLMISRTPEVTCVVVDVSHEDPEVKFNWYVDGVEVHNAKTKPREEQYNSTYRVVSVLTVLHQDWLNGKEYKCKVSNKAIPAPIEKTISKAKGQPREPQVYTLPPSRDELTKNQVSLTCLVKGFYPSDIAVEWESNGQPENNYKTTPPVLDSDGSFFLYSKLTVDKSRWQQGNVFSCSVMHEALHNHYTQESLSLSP
light: DIVMTQSPLSLPVTPGEPASISCQASESLVHSNRNTYLHWYLQKPGQSPQLLIYKVSNRFSGVPDRFSGSGSGTDFTLKISRVEAEDVGVYYCSQNTHVPPTFGQGTKVEIERTVAAPSVFIFPPSDEQLKSGTASVVCLLNNFYPREAKVQWKVDNALQSGNSQESVTEQDSKDSTYSLSSTLTLSKADYEKHKVYACEVTHQGLSSPVTKSFNRGEC
notes: homodimerized; also called Ho Ab
B2: GpH7-B3 variant L328_15Y/GpL16-k0 (antibody, human IgG1, kappa)
heavy: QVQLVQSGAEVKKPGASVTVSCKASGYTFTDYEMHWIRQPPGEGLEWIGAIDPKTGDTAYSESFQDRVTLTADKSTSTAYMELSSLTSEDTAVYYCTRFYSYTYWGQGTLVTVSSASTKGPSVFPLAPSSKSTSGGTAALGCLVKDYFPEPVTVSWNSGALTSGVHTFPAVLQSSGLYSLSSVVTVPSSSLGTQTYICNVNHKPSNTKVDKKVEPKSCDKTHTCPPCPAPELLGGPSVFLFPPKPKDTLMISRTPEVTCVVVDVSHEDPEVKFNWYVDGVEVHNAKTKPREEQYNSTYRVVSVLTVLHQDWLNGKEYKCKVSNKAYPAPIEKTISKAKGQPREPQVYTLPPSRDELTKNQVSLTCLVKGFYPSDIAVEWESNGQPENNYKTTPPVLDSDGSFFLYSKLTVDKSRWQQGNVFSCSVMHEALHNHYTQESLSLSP
light: DIVMTQSPLSLPVTPGEPASISCQASESLVHSNRNTYLHWYLQKPGQSPQLLIYKVSNRFSGVPDRFSGSGSGTDFTLKISRVEAEDVGVYYCSQNTHVPPTFGQGTKVEIERTVAAPSVFIFPPSDEQLKSGTASVVCLLNNFYPREAKVQWKVDNALQSGNSQESVTEQDSKDSTYSLSSTLTLSKADYEKHKVYACEVTHQGLSSPVTKSFNRGEC
notes: as for B1
B3: GpH7-B3 variant S267_02A/GpL16-k0 (antibody, human IgG1, kappa)
heavy: not shown
light: DIVMTQSPLSLPVTPGEPASISCQASESLVHSNRNTYLHWYLQKPGQSPQLLIYKVSNRFSGVPDRFSGSGSGTDFTLKISRVEAEDVGVYYCSQNTHVPPTFGQGTKVEIERTVAAPSVFIFPPSDEQLKSGTASVVCLLNNFYPREAKVQWKVDNALQSGNSQESVTEQDSKDSTYSLSSTLTLSKADYEKHKVYACEVTHQGLSSPVTKSFNRGEC
notes: as for B1
B4: GpH7-B3 variant P238_08L/GpL16-k0 (antibody, human IgG1, kappa)
heavy: not shown
light: DIVMTQSPLSLPVTPGEPASISCQASESLVHSNRNTYLHWYLQKPGQSPQLLIYKVSNRFSGVPDRFSGSGSGTDFTLKISRVEAEDVGVYYCSQNTHVPPTFGQGTKVEIERTVAAPSVFIFPPSDEQLKSGTASVVCLLNNFYPREAKVQWKVDNALQSGNSQESVTEQDSKDSTYSLSSTLTLSKADYEKHKVYACEVTHQGLSSPVTKSFNRGEC
notes: as for B1
B5: GpH7-B3 variant V266_06M/GpL16-k0 (antibody, human IgG1, kappa)
heavy: not shown
light: DIVMTQSPLSLPVTPGEPASISCQASESLVHSNRNTYLHWYLQKPGQSPQLLIYKVSNRFSGVPDRFSGSGSGTDFTLKISRVEAEDVGVYYCSQNTHVPPTFGQGTKVEIERTVAAPSVFIFPPSDEQLKSGTASVVCLLNNFYPREAKVQWKVDNALQSGNSQESVTEQDSKDSTYSLSSTLTLSKADYEKHKVYACEVTHQGLSSPVTKSFNRGEC
notes: as for B1
B6: GpH7-B3 variant T335_18N/GpL16-k0 (antibody, human IgG1, kappa)
heavy: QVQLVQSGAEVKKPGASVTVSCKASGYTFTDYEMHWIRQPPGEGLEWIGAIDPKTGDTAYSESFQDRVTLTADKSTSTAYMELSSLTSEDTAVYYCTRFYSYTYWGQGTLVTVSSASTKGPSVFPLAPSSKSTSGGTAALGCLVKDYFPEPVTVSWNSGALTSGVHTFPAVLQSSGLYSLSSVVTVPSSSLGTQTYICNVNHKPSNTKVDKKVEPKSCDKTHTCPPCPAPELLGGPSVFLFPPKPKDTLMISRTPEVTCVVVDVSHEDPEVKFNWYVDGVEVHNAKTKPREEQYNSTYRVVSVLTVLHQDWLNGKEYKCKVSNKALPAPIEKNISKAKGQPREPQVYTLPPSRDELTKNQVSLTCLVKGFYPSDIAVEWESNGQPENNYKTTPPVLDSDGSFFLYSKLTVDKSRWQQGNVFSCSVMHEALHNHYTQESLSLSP
light: DIVMTQSPLSLPVTPGEPASISCQASESLVHSNRNTYLHWYLQKPGQSPQLLIYKVSNRFSGVPDRFSGSGSGTDFTLKISRVEAEDVGVYYCSQNTHVPPTFGQGTKVEIERTVAAPSVFIFPPSDEQLKSGTASVVCLLNNFYPREAKVQWKVDNALQSGNSQESVTEQDSKDSTYSLSSTLTLSKADYEKHKVYACEVTHQGLSSPVTKSFNRGEC
notes: as for B1
B7: GpH7-B3 variant S337_14T/GpL16-k0 (antibody, human IgG1, kappa)
heavy: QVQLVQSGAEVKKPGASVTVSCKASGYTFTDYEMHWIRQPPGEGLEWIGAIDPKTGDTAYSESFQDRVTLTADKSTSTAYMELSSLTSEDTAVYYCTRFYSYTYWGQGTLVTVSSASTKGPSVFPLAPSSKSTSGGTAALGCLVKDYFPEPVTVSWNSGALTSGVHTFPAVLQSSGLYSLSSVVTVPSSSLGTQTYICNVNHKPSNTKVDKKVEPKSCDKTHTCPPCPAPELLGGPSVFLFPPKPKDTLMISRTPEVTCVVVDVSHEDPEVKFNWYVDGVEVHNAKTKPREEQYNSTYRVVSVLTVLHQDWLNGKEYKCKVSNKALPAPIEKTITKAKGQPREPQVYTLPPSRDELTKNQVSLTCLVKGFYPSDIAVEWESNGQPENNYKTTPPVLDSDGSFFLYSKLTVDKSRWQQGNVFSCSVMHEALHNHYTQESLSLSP
light: DIVMTQSPLSLPVTPGEPASISCQASESLVHSNRNTYLHWYLQKPGQSPQLLIYKVSNRFSGVPDRFSGSGSGTDFTLKISRVEAEDVGVYYCSQNTHVPPTFGQGTKVEIERTVAAPSVFIFPPSDEQLKSGTASVVCLLNNFYPREAKVQWKVDNALQSGNSQESVTEQDSKDSTYSLSSTLTLSKADYEKHKVYACEVTHQGLSSPVTKSFNRGEC
notes: as for B1
B8: GpH7-B3 variant T335_04F/GpL16-k0 (antibody, human IgG1, kappa)
heavy: not shown
light: DIVMTQSPLSLPVTPGEPASISCQASESLVHSNRNTYLHWYLQKPGQSPQLLIYKVSNRFSGVPDRFSGSGSGTDFTLKISRVEAEDVGVYYCSQNTHVPPTFGQGTKVEIERTVAAPSVFIFPPSDEQLKSGTASVVCLLNNFYPREAKVQWKVDNALQSGNSQESVTEQDSKDSTYSLSSTLTLSKADYEKHKVYACEVTHQGLSSPVTKSFNRGEC
notes: as for B1
B9: GpH7-B3 variant T335_08L/GpL16-k0 (antibody, human IgG1, kappa)
heavy: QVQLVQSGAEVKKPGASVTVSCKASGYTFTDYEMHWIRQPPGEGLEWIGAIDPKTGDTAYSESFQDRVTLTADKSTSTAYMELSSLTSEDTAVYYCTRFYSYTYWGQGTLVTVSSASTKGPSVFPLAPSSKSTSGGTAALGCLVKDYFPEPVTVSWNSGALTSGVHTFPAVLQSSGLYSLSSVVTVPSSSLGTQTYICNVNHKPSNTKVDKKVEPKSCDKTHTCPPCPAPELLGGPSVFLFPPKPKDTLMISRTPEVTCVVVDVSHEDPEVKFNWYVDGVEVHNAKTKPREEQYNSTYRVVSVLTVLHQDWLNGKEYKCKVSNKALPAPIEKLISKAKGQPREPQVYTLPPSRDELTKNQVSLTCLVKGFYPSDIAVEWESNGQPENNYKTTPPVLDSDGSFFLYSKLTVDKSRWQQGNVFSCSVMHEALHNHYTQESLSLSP
light: DIVMTQSPLSLPVTPGEPASISCQASESLVHSNRNTYLHWYLQKPGQSPQLLIYKVSNRFSGVPDRFSGSGSGTDFTLKISRVEAEDVGVYYCSQNTHVPPTFGQGTKVEIERTVAAPSVFIFPPSDEQLKSGTASVVCLLNNFYPREAKVQWKVDNALQSGNSQESVTEQDSKDSTYSLSSTLTLSKADYEKHKVYACEVTHQGLSSPVTKSFNRGEC
notes: as for B1
B10: GpH7-B3 variant S267_01G/GpL16-k0 (antibody, human IgG1, kappa)
heavy: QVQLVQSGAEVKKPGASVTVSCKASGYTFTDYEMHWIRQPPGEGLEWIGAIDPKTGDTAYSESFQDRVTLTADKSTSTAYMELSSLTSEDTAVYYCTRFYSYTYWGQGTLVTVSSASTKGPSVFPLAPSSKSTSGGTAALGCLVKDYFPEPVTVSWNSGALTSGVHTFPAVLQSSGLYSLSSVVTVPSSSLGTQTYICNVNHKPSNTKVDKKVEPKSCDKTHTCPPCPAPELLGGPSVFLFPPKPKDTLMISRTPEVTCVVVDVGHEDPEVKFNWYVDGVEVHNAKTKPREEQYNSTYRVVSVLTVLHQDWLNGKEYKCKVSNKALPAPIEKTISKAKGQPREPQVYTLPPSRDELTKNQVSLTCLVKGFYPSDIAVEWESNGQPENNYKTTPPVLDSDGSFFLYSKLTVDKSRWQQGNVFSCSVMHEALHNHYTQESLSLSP
light: DIVMTQSPLSLPVTPGEPASISCQASESLVHSNRNTYLHWYLQKPGQSPQLLIYKVSNRFSGVPDRFSGSGSGTDFTLKISRVEAEDVGVYYCSQNTHVPPTFGQGTKVEIERTVAAPSVFIFPPSDEQLKSGTASVVCLLNNFYPREAKVQWKVDNALQSGNSQESVTEQDSKDSTYSLSSTLTLSKADYEKHKVYACEVTHQGLSSPVTKSFNRGEC
notes: as for B1
B11: GpH7-B3 variant T335_20W/GpL16-k0 (antibody, human IgG1, kappa)
heavy: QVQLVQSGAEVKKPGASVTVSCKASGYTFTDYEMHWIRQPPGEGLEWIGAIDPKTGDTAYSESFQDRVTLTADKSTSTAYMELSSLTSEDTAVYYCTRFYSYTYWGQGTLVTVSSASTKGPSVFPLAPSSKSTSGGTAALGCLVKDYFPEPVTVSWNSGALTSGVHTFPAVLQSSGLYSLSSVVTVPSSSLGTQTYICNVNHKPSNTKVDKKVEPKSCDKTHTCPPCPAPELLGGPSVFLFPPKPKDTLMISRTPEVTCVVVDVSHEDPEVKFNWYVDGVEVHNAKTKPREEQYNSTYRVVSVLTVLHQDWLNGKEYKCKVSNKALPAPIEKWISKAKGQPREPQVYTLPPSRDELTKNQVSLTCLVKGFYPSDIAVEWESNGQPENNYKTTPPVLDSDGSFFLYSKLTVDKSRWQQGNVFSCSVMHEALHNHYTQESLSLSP
light: DIVMTQSPLSLPVTPGEPASISCQASESLVHSNRNTYLHWYLQKPGQSPQLLIYKVSNRFSGVPDRFSGSGSGTDFTLKISRVEAEDVGVYYCSQNTHVPPTFGQGTKVEIERTVAAPSVFIFPPSDEQLKSGTASVVCLLNNFYPREAKVQWKVDNALQSGNSQESVTEQDSKDSTYSLSSTLTLSKADYEKHKVYACEVTHQGLSSPVTKSFNRGEC
notes: as for B1
B12: GpH7-B3 variant Y296_20W/GpL16-k0 (antibody, human IgG1, kappa)
heavy: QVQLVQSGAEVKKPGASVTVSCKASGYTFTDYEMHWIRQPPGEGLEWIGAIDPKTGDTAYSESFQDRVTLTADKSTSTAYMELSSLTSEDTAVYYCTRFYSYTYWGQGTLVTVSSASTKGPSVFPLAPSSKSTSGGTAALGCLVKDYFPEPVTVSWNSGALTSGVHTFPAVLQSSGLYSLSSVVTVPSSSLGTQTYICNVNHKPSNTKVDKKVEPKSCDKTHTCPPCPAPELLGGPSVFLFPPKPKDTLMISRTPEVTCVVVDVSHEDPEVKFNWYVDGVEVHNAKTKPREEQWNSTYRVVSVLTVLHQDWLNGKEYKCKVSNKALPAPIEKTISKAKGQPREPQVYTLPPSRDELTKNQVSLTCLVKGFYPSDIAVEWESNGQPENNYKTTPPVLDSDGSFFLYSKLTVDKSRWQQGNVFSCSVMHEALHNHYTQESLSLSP
light: DIVMTQSPLSLPVTPGEPASISCQASESLVHSNRNTYLHWYLQKPGQSPQLLIYKVSNRFSGVPDRFSGSGSGTDFTLKISRVEAEDVGVYYCSQNTHVPPTFGQGTKVEIERTVAAPSVFIFPPSDEQLKSGTASVVCLLNNFYPREAKVQWKVDNALQSGNSQESVTEQDSKDSTYSLSSTLTLSKADYEKHKVYACEVTHQGLSSPVTKSFNRGEC
notes: as for B1
B13: GpH7-B3 variant S239_01G/GpL16-k0 (antibody, human IgG1, kappa)
heavy: not shown
light: DIVMTQSPLSLPVTPGEPASISCQASESLVHSNRNTYLHWYLQKPGQSPQLLIYKVSNRFSGVPDRFSGSGSGTDFTLKISRVEAEDVGVYYCSQNTHVPPTFGQGTKVEIERTVAAPSVFIFPPSDEQLKSGTASVVCLLNNFYPREAKVQWKVDNALQSGNSQESVTEQDSKDSTYSLSSTLTLSKADYEKHKVYACEVTHQGLSSPVTKSFNRGEC
notes: as for B1
B14: GpH7-B3 variant T335_16H/GpL16-k0 (antibody, human IgG1, kappa)
heavy: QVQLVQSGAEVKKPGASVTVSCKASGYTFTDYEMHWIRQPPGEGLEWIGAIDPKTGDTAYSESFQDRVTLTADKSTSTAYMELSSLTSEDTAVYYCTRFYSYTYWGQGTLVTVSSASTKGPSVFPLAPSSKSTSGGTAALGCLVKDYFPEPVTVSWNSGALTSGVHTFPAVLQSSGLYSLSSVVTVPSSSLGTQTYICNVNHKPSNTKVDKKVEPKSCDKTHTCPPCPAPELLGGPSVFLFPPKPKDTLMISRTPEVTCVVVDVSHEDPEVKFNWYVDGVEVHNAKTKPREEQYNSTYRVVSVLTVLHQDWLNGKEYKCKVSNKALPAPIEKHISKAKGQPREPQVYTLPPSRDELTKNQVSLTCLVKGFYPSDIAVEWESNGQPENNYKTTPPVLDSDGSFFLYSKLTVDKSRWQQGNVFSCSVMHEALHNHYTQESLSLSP
light: DIVMTQSPLSLPVTPGEPASISCQASESLVHSNRNTYLHWYLQKPGQSPQLLIYKVSNRFSGVPDRFSGSGSGTDFTLKISRVEAEDVGVYYCSQNTHVPPTFGQGTKVEIERTVAAPSVFIFPPSDEQLKSGTASVVCLLNNFYPREAKVQWKVDNALQSGNSQESVTEQDSKDSTYSLSSTLTLSKADYEKHKVYACEVTHQGLSSPVTKSFNRGEC
notes: as for B1
B15: GpH7-B3 variant S239_09D/GpL16-k0 (antibody, human IgG1, kappa)
heavy: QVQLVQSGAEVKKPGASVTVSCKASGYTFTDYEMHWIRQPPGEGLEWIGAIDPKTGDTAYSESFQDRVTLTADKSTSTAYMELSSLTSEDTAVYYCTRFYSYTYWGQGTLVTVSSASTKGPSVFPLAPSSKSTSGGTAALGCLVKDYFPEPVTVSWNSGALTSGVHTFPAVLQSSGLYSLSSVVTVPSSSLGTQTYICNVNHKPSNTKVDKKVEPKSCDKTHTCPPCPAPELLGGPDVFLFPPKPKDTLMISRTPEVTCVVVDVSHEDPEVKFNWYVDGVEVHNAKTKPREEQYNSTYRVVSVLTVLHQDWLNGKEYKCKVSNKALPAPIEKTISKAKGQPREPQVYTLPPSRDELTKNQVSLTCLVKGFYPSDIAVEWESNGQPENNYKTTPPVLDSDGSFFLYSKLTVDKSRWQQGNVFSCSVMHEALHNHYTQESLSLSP
light: DIVMTQSPLSLPVTPGEPASISCQASESLVHSNRNTYLHWYLQKPGQSPQLLIYKVSNRFSGVPDRFSGSGSGTDFTLKISRVEAEDVGVYYCSQNTHVPPTFGQGTKVEIERTVAAPSVFIFPPSDEQLKSGTASVVCLLNNFYPREAKVQWKVDNALQSGNSQESVTEQDSKDSTYSLSSTLTLSKADYEKHKVYACEVTHQGLSSPVTKSFNRGEC
notes: as for B1
B16: GpH7-B3 variant T335_19Q/GpL16-k0 (antibody, human IgG1, kappa)
heavy: not shown
light: DIVMTQSPLSLPVTPGEPASISCQASESLVHSNRNTYLHWYLQKPGQSPQLLIYKVSNRFSGVPDRFSGSGSGTDFTLKISRVEAEDVGVYYCSQNTHVPPTFGQGTKVEIERTVAAPSVFIFPPSDEQLKSGTASVVCLLNNFYPREAKVQWKVDNALQSGNSQESVTEQDSKDSTYSLSSTLTLSKADYEKHKVYACEVTHQGLSSPVTKSFNRGEC
notes: as for B1
B17: GpH7-B3 variant T335_09D/GpL16-k0 (antibody, human IgG1, kappa)
heavy: not shown
light: DIVMTQSPLSLPVTPGEPASISCQASESLVHSNRNTYLHWYLQKPGQSPQLLIYKVSNRFSGVPDRFSGSGSGTDFTLKISRVEAEDVGVYYCSQNTHVPPTFGQGTKVEIERTVAAPSVFIFPPSDEQLKSGTASVVCLLNNFYPREAKVQWKVDNALQSGNSQESVTEQDSKDSTYSLSSTLTLSKADYEKHKVYACEVTHQGLSSPVTKSFNRGEC
notes: as for B1
B18: GpH7-B3 variant T335_06M/GpL16-k0 (antibody, human IgG1, kappa)
heavy: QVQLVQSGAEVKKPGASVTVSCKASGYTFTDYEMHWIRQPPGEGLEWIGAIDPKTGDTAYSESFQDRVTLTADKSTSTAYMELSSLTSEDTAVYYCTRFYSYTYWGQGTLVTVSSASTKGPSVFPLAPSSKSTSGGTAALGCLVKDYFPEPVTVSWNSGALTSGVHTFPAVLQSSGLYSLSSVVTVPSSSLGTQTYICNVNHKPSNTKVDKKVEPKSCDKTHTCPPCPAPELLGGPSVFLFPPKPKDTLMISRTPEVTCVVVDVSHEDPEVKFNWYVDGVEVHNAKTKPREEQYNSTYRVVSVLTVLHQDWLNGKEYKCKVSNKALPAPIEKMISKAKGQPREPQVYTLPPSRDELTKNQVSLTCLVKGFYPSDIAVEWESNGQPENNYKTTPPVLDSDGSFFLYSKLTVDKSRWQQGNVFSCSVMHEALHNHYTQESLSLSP
light: DIVMTQSPLSLPVTPGEPASISCQASESLVHSNRNTYLHWYLQKPGQSPQLLIYKVSNRFSGVPDRFSGSGSGTDFTLKISRVEAEDVGVYYCSQNTHVPPTFGQGTKVEIERTVAAPSVFIFPPSDEQLKSGTASVVCLLNNFYPREAKVQWKVDNALQSGNSQESVTEQDSKDSTYSLSSTLTLSKADYEKHKVYACEVTHQGLSSPVTKSFNRGEC
notes: as for B1
B19: GpH7-B3 variant P271_01G/GpL16-k0 (antibody, human IgG1, kappa)
heavy: not shown
light: DIVMTQSPLSLPVTPGEPASISCQASESLVHSNRNTYLHWYLQKPGQSPQLLIYKVSNRFSGVPDRFSGSGSGTDFTLKISRVEAEDVGVYYCSQNTHVPPTFGQGTKVEIERTVAAPSVFIFPPSDEQLKSGTASVVCLLNNFYPREAKVQWKVDNALQSGNSQESVTEQDSKDSTYSLSSTLTLSKADYEKHKVYACEVTHQGLSSPVTKSFNRGEC
notes: as for B1
B20: GpH7-B3 variant S267_07I/GpL16-k0 (antibody, human IgG1, kappa)
heavy: not shown
light: DIVMTQSPLSLPVTPGEPASISCQASESLVHSNRNTYLHWYLQKPGQSPQLLIYKVSNRFSGVPDRFSGSGSGTDFTLKISRVEAEDVGVYYCSQNTHVPPTFGQGTKVEIERTVAAPSVFIFPPSDEQLKSGTASVVCLLNNFYPREAKVQWKVDNALQSGNSQESVTEQDSKDSTYSLSSTLTLSKADYEKHKVYACEVTHQGLSSPVTKSFNRGEC
notes: as for B1

In this experiment the target is T1, FcγRIIa R (extracellular domain, His …). Description: SPR (Biacore), relative binding, control GpH7-B3/GpL16-k0 = 100. As for the experimental part:
Analysis of interaction between objective antibody and the FcγR was carried out using Biacore T100 (GE Healthcare). HBS-EP+ (GE Healthcare) was used as the running buffer, and the measurement temperature was set to 25° C. Chips produced by immobilizing the antigen peptide by the amine coupling method to a Series S Sencor Chip CM5 (GE Healthcare), or alternatively, chips produced by allowing preliminarily biotinylated antigen peptides to interact with and immobilize onto a Series S Sensor Chip SA (certified) (GE Healthcare) were used. Antibodies of interest were captured onto an antigen peptide-immobilized chip, and allowed to interact to each FcγR diluted with running buffer. To regenerate and repeatedly use the chip, the antibodies captured on the chip were washed off by reacting 10 mM glycine-HCl, pH 1.5.
In the case of B1, the Ho/Con_2aR is 140 % of control.

In the case of B2, the Ho/Con_2aR is 157 % of control.

Turning to B3, the Ho/Con_2aR was 160 % of control.

Take B4: the Ho/Con_2aR was 148 % of control.

For B5, the Ho/Con_2aR is 146 % of control.

For B6, the Ho/Con_2aR is 100 % of control.

Regarding B7, the Ho/Con_2aR is 110 % of control.

On to B8, for which the Ho/Con_2aR is 108 % of control.

On to B9, for which the Ho/Con_2aR is 108 % of control.

In the case of B10, the Ho/Con_2aR was 116 % of control.

As for B11, the Ho/Con_2aR was 101 % of control.

Consider B12, for which the Ho/Con_2aR is 107 % of control.

For the molecule B13, the Ho/Con_2aR is 132 % of control.

In the case of B14, the Ho/Con_2aR was 102 % of control.

With B15, the Ho/Con_2aR is 142 % of control.

Turning to B16, the Ho/Con_2aR is 102 % of control.

With B17, the Ho/Con_2aR was 113 % of control.

In the case of B18, the Ho/Con_2aR is 107 % of control.

Turning to B19, the Ho/Con_2aR was 150 % of control.

Consider B20, for which the Ho/Con_2aR is 113 % of control.
